Experimental data reported in patent US9549967B2, “Regulation of sodium channels by PLUNC proteins” (The University of North Carolina at Chapel Hill, priority 2009, dated 2017).

T1: αβγENaC (Rattus norvegicus, UniProt P37089+P37090+P37091)
T1 construct: expressed in transfected cells; host or cells: Xenopus laevis oocytes (cRNA injection)
T1 sequence (P37089 1-698): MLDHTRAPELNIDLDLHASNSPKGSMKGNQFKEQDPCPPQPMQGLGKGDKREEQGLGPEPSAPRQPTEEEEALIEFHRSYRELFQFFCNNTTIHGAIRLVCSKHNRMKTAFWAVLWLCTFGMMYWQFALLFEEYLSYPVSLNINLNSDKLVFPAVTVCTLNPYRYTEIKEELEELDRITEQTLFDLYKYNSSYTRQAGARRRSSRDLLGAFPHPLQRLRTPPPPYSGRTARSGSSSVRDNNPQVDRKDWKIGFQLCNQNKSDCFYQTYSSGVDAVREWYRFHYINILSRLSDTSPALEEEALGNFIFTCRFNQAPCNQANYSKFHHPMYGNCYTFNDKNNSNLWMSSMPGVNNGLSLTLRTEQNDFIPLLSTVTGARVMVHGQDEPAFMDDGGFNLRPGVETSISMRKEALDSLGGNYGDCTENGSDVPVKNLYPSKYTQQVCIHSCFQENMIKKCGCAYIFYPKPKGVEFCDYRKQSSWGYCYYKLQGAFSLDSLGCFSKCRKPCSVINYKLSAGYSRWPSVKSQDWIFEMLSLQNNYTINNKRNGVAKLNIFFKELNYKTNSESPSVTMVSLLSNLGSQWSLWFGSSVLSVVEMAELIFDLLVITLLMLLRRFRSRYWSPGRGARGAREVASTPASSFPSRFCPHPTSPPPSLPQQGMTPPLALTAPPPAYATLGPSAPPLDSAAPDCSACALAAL
T1 sequence (P37090 1-638): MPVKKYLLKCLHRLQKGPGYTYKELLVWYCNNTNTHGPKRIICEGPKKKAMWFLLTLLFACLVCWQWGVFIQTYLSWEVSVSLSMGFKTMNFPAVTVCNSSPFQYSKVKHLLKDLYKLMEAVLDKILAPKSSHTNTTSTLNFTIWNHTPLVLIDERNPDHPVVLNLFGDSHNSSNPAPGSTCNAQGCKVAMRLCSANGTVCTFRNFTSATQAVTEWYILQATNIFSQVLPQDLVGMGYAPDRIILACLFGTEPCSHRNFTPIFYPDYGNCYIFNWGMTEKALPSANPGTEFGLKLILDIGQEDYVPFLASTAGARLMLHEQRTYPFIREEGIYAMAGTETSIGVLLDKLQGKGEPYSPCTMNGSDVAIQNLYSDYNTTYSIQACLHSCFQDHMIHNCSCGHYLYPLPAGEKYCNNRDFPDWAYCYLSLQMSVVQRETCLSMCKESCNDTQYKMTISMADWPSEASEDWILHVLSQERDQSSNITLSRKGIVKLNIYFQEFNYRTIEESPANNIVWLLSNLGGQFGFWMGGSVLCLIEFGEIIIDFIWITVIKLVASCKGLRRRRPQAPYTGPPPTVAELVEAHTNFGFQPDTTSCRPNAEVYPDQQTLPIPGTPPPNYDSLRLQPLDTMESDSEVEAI
T1 sequence (P37091 1-650): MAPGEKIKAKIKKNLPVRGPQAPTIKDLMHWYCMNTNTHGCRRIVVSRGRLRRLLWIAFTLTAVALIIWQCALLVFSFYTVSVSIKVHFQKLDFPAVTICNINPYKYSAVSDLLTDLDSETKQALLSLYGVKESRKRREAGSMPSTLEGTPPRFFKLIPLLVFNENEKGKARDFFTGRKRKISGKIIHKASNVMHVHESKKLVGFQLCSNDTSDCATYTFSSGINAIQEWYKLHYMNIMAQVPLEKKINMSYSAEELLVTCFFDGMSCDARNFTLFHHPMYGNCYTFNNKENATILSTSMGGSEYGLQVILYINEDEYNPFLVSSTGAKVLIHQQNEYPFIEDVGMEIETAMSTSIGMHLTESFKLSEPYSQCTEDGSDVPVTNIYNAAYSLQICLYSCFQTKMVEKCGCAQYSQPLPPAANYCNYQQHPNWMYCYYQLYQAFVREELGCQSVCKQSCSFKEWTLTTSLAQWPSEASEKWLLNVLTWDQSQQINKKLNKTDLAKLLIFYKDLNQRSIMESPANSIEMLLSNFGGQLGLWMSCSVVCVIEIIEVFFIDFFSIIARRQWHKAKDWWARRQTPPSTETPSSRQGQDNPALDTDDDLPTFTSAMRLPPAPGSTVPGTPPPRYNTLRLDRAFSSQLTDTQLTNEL


Target: T1, αβγENaC
Assay: Amiloride-sensitive whole cell current in Xenopus laevis oocytes expressing ENaC (two electrode voltage clamp)
Format: cell-based
Method: Oocyte studies. Xenopus laevis oocytes were harvested and injected as described (Donaldson, et al., J. Biol. Chem. 277:8338 (2002)). Defolliculated healthy stage V-VI oocytes were injected with 0.3 ng of cRNA of each ENaC subunit. Injected oocytes were kept in modified Barth's saline (in mM: 88 NaCl, 1 KCl, 2.4 NaHCO3, 0.3 Ca(NO3)2, 0.41 CaCl2, 0.82 MgSO4, and 15 HEPES, adjusted to pH 7.35 with Tris). Oocytes were studied 24 hr after injection using the two electrode voltage clamp technique as previously described (Donaldson, et al., J. Biol. Chem. 277:8338 (2002)). Oocytes were clamped at a holding potential of […]. The change in amiloride-sensitive whole cell current as an indicator of ENaC activity was determined by subtracting the corresponding current value measured in the presence of 10 μM amiloride from that measured before the application of amiloride.

Row | Molecule | ENaC activity on trypsin exposure (oocytes) | ability of CAP1 and CAP2 to activate ENaC (ENaC ± SPLUNC1 co-expressed with prostasin (CAP1) and CAP2) | inhibition of ENaC by full-length and truncated SPLUNC1 (oocyte current inhibition assay, pH 7.4, all p<0.0001) | trypsin stimulation of ENaC activity (trypsin-exposed oocytes ± SPLUNC1)
1 | trypsin [reference compound] | increased ENaC activity |  |  | 
2 | SPLUNC1: human SPLUNC1, 256 amino acid secreted PLUNC protein (SEQ ID NO:1); rSPLUNC1 = V5/6His-tagged protein purified from HEK293 media (protein, listed as Homo sapiens, V5/6His tag, rSPLUNC1 = V5/6His-tagged protein purified from HEK293 media) MFQTGGLIVFYGLLAQTMAQFGGLPVPLDQTLPLNVNPALPLSPTGLAGSLTNALSNGLLSGGLLGILENLPLLDILKPGGGTSGGLLGGLLGKVTSVIPGLNNIIDIKVTDPQLLELGLVQSPDGHRLYVTIPLGIKLQVNTPLVGASLLRLAVKLDITAEILAVRDKQERIHLVLGDCTHSPGSLQISLLDGLGPLPIQGLLDSLTGILNKVLPELVQGNVCPLVNEVLRGLDITLVHDIVNMLIHGLQFVIKV |  | significantly reduced | Significant inhibition | attenuated
